For five substances, SEC-HPLC retention time of major product after adding CEA, IC50 and EC50 results are on record in US20140228541A1.

pEC50, pIC50: −log10 of the molar value.

Test [1] addresses carcinoembryonic antigen (CEA) (UniProt P06731). The test is described as follows: SEC-HPLC shift; the labeled Fab in serum without CEA eluted at 10.331 min. A general note: Size exclusion chromatography separates by hydrodynamic size, large species first.
Test [2] concerns the target somatostatin receptors on AR42J cells (rat). The test can be described thus: competition with ^111In(DTPA-octreotide) on AR42J cells, apparent IC50.
Test [3] deals with binding target of the bombesin analog IMP493 (not named in the paragraph). The test is described as follows: assay not described.
Test [4] has as its target gastrin-releasing peptide receptor on PC-3 cells (UniProt P30550). The test can be described thus: competition with ^125I-BBN on PC-3 cells, repeat experiment.

somatostatin receptors on AR42J cells (rat), sequence (P30680 whole entry): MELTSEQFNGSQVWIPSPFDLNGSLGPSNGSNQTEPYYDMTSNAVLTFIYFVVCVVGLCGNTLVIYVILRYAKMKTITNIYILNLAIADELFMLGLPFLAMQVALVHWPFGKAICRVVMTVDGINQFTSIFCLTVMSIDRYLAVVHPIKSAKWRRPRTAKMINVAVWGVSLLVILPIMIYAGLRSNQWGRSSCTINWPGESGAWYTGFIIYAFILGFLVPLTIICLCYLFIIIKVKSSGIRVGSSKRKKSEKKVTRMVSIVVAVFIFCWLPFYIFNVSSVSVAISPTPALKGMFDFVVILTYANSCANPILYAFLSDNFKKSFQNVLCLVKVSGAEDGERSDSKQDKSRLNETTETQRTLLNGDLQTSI
carcinoembryonic antigen (CEA), sequence (P06731 35-685 limits assumed): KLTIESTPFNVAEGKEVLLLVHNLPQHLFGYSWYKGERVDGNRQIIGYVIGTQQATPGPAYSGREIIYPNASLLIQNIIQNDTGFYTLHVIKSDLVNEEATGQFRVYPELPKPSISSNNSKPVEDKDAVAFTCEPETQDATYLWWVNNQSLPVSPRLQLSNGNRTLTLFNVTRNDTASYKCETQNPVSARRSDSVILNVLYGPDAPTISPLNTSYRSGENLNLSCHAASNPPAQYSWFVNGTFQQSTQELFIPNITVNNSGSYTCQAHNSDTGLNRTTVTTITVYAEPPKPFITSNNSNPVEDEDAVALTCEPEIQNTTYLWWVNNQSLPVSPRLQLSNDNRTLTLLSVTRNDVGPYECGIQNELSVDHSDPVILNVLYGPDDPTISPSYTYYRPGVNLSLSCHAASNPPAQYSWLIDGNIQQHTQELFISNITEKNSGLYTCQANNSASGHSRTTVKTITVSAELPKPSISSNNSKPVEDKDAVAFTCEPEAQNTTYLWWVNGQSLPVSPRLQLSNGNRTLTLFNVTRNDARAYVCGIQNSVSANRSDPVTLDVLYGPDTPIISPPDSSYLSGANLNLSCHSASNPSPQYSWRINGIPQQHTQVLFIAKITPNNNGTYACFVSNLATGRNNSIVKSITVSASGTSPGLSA
gastrin-releasing peptide receptor on PC-3 cells, sequence (P30550 whole entry): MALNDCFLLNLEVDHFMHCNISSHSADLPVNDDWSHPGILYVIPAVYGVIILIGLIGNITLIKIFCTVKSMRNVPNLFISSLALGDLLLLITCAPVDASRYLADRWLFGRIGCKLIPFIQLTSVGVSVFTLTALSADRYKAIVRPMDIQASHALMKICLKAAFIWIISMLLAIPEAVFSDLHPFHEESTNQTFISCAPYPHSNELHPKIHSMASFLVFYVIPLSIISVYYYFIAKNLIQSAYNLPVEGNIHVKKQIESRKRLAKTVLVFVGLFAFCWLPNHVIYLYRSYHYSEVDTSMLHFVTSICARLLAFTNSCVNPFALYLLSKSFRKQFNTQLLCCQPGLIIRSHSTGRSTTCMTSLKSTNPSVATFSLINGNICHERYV

In the case of Al^18F(NODA-MPAES)-hMN-14 Fab′, in test [1], the SEC-HPLC retention time of major product after adding CEA is 7.21 min.

For orientation: pIC50 means −log10 of the IC50, conventionally taken in molar units. As for “Al^19F(IMP466) (Al^19F complex of NOTA-D-Phe-Cys-Phe-D-Trp-Lys-Thr-Cys-Throl) (peptide)”, the pIC50 in test [2] is 8.44.

For the substance ^69Ga(IMP466) (peptide), the pIC50 in test [2] was 7.89.

As a reminder, the pEC50 is the EC50 on a negative log10 scale, so that one unit is a factor of ten. The low end stands for a high EC50, the high end for a low EC50. On to ^125I-Bombesin (Perkin-Elmer) (peptide), for which, in test [3], the pEC50 is 7.23.

For the substance “commercially available BBN peptide (positive control)”, the pIC50 in test [4] is 7.61.
